According to the nanobody polyreactivity screen of Harvey et al. (2022):

Assay: yeast display, Sf9 membrane polyspecificity reagent, FACS + sequencing; frameworks hold sequencing errors
Outline: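 Genes from sorted yeast were amplified by colony PCR, read by MiSeq 2 × 250 sequencing and filtered on CDR length. These cells carried a synthetic nanobody library in Saccharomyces cerevisiae BJ5465 and were sorted by FACS into low and high (top ~1%) gates on anti-HA and streptavidin fluorescence. Polyreactivity is labelled according to the gate of origin.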

Sequence | polyreactivity (PSR sort gate)
QVQLVESGGGLVQAGGSLRLSCAASGTTIPRNAMGWYRQAPGKERELVAAITSGGSTNYADSVKGRFTISRDNAKNTVYLQMNSLKPEDTAVYYCAADEQVNTQYVVWGDYWGQGTQVTVSS | low polyreactivity
QVQLVESGGGLVQAGGSLRLSCAASGRTFGYNAMGWYRQAPGKERELVATISWGCGSTYYADSLKWRFTISPDNAKNTVYLQMNSLKPEDTAVYYCNKVHYGRLHSYSRAIYGEDYWGQGTQVTVSS | high polyreactivity
QVQLVESGGGLVQAGGSLRLSCAASGSTFNVYAMGWYRQAPGKERELVARISWSGGNTYYADSVKGRFTISRDNAKNTVYLQMNSLKPEDTAVYYCATKGYTGYAYRYGYWGQGTQVTVSS | high polyreactivity
QVQLVESGGGLVQAGGSLRLSCAASGSIFPVNVMGWYRQAPGKERELVADITSTGTYYADSVKGRFTISRDNAKNTVYLQMNSLKPEDTAVYYCAKAGGSWYRRYYYWGQGTQVTVSS | high polyreactivity
QVQLVESGGGLVQAGGTLRLSCAASGFTFSSYTVGWYRQAPRKERELVASISSGGSTNYADSVKGRFTISRDNAKNTVYLQMNSLIPEDTAVFYCAAGTPCISFYDVCSGYDYWGQGTQVTVSS | low polyreactivity
QVQLVVSGGGLVQAGGSLRLSCAASGSTFFKYVMGWYIQAPGKERELVAAITWRGGRTYYADSVKGRFTISRDNEKNTVYLQMNSLIPEDTAVYYCAAYDQSLYGRRYDYWGQGTQVTVSS | high polyreactivity
QVQIVESGGGLVQAGGSLRLSCAASGSTSLVNAMGWYRQAPGKESELVAAITRGGNTYYADSVKGRFTISRDNAKNTVYLQMNSLKPEDTAVYYCAADFWRFYYEYDYWGQGTQVTVSS | low polyreactivity
QVQLVESGGGLVQAGGSLRLSCAASGSTLSKYAMGWYRQAPGKERELVATISIRGGNTYYADSVKGRFTFSRDNAKNTVYLQMNSLKPEDTAVYYCAARRVNAPPSYRQKAGYDYWGQGTQVTVSS | high polyreactivity
QVQLVESGGGLVQAGGSLRLSCAASGSIFRSNAMGWYRPAPGKERELVAAISRRGGSTYYADSVKGRFTISRDNAKNPVYLQMNSLKPEDTAVYYCAAPTIVSGHDSWGQGTQVTVSS | high polyreactivity
QEQLQESGSGLVQAGVSLRLSSAASGNIVQDWVMGWYRQAPGKERELVAAISPGAITYYADSVKGRFTISSDNAKNTVYLQTNRLNPEDTAVYYCAAYYIVEFLHGYWGQGTRVTVSS | low polyreactivity
QVQLVESGGGLVQAGGSLRLSCAASGSIFTLNAMGWYRQAPGKERELVAAIRWSGGSTYYADSVKGRFTISRDNAKNTVYLQMNSLKPEDTAVYYCAAKYPSDYYSRGFNYWGQGTQVTVSS | high polyreactivity
QVQLVESGGGLVQAGGSLRLSCAASGSIFWRYAMGRYRQAPGKEREVVAAISGSGVRTSYADSVKGRFTISRDNAKNTVYLQMNSLKAEDTAVYYCATDIRSGRYYWGQGTQVTVSS | high polyreactivity
QVQLVESAGGLVQAGGSLRLSCAASGRILPSNAMGWYRQAPGKERELVAGITSGGSTDYADSVKGRFTISRDNAKNTVYLQMNSLKPEDTGVFYCAADSRRYGVRFDYWGQGTQVTVSS | low polyreactivity
QVQLVESGGGLVQAGGSLRLSCAASGSTFKKNAMGWYRQAPGKERELVAAISGIGTRTSYADSVKGRFTISRDNAKNTVYLQMNSLKPEDTAVYYCAARYYGFPSTLKYDYWGQGTQVTVSS | high polyreactivity
QVQLVESGGGLVQAGGSLRLSCAASGRTFYPNVMGWYRQAPGKERELVAAITSGGSTYYADSVKGRFTISRDNAKNTVYLQMNSLKPEDTAVYYCAVAYAGGGSRKYDYWGQGTQVTVSS | low polyreactivity
QVQLQESGGGLVQAGGSLRLSCAASGTIFRISDMGSYRQAPGKDLEFVAAITYGANTYYADSGKGRFTISRDNAKNTVYLQMNSLKPEDTAVYYCAVPPVKETILDYWGQGTQVTVSS | low polyreactivity
QVQLVESGGGLVQAGGSLRLSCAASGRIFKYYVMGWYRQAPGKERELVATISRRDASTYYADSVKGRFTISRDNAKNTVYLQMNSLKPEDTAVYYCNADRARSERIKYDYWGQGTQGTVSS | high polyreactivity
QVQLVESGGGLVQAGGSLRLSCAASGITFADNAMGWYRQAPGKERELVASISKSSGSTYYADSVKGRFTISRDNAKNTVYLQMNSLKPEDTAVYYCATDPYVRRSPSWYDYWGQGTQVTVSS | low polyreactivity
QVQLVESGGGLVQAGGSLRLSCAASGRIFSPYTMGWYRQAPGKERELVAAINERGTSTYYADTVKGRFSISRDNAKNTVYLQKNSLKPEDTAVYYCAARVRQRRYGTTSGGYDYWGQGTQVTVSS | high polyreactivity
QVQLVESGGGLVQAGGSLRLSCADSGGIFNTYAMGWYRQAPGKEREFVAAISRRGGGTYYADSVKGRFTISRDNAKNTVYLQMNSLKPEDTAVYYCAAKRFHEHGYWGQGTQVTVSS | high polyreactivity
QVQLVESGGGLVQAGGSLRLSCAASGRIFRGYAMGWSRQAPGKERELVAVISYSGTRTYYADSVKGRFTISRDNAKNTVYLQMNSLKPEDTAVYYCNARANGFKDGYWGQGTQVTVSS | high polyreactivity
QVQLVESGGGLVQAGGSLRLSCAASGGTFYGYAAMGWYRQAPGKERELVAAISRSGGRTYYADSVKGRFTISRDNAKNTVYLQMNSLKPEDTAVYDCNVGFYPYSFLTFQGGDYWGQGTQVTVSS | high polyreactivity

Sequence | polyreactivity (PSR sort gate)
QVQLVESGGGLVQAGGSLRLSCAASGRTFFDYAMGWYRQAPGKEWELVAAITASGSSTYYADSVKGRFTISRDNAKNTVYLQMNSLKPDDTAVYYCAAGASANKKITSYDYWGQGTQVTVSS | low polyreactivity
QVQLVESGGGLVQAGGSLRLSCAASGSNFWRNVMGWYRQAPGKERELVAAISSGGSTYYADSVKGRFTISRDNAKNTVYLQMNSLKPEDTEVYYCAAPRYDYWGQGTQVTVSS | high polyreactivity
QVQLVESGGGLVQAGGSLRLSCAASGSIFQPNAMGGGGQAPGKERELVASIRGRGGDTYYADSVKGRFTISRDNAKNTVYLQMNSLKPEDTAVYYCAADYRWGQGTQVTVSS | low polyreactivity
QVQLVESGGGLVQAGGSLRLSCAASGFTFRDNAMGWYRQAPGKEWELVAAITWDGGSTYYADSVKGRFTISRDNAKNTVYLQMNSLKPEDTAVYYCAASRYYPRYFKRYYYWGQGTQVTVSS | high polyreactivity
QVQLVESGGGIVQAGRSLRLRCAASGFIFRYYTMGWYRQAPGKEREFVAAITSRGGSTYYSDSVKGRFTISRDNAKNTVYLQMNSLKPEDTAVYDCATTRWGYEYWGQGSQVTVSS | high polyreactivity
QVQLVESGGGLVQAGGSLRLSCAASGGTFSSNAMGWYRQAPGKERELVAAISGSGDRTYYADSVKGRFTISRDNAKNTVYLQMNSLKPEDTAVYYCAKTLHKGSRGRYNYWGQGTQVTVSS | high polyreactivity
QDQLVDSGGGLVQAGGSLRLSCAASGRIFGYNSMGWYRQAPGKERELVASISSDGRTYYADSVKGRFTISRDNAKNTVYLQMNSLKPEDTAVYYCAAKEWYFTTWYTYYERDYWGQGTQVTLSS | high polyreactivity
QVQLVESGGGLVQAGGSLRLSCAASGRIFRNYAMGWYRQAPGKERELVAAISVSGGRTYYADSVKGRFTISRDNAKNTVYLQMNSLKPEDTAVYYCAARTGRQGYSRGYNSWGQGTQVTVSS | high polyreactivity
QVQLVESGGGLVQAGGSLRLSCAASGSTFDPNVMGWYRQAPGKERELVAAITWSGGSTSYADSVKGRFTISRDNAKNTVYLQMNSLKPEDTAVYYCAADWHSWRWGYYYWGQGTQVTVSS | low polyreactivity
QVQLVESGGGLVQAGGSLRLSCAASGSTFYHYAMGWYRQAPGKERELVAAISWSGGSTYYADSVKGRFTISRDNAKNTVYLQMNSLKPEDTAVYYCNKAGRSWFRTGLGYWGKGTQVTVSS | high polyreactivity
QVQLQESDGGLVQAGGSLRLICAASGSISPQYYMGWYRQAPGKEREFVAISKGTTTYYADSVKGRLTISRVNAKNTVYLQMNSLKPEDTAVYCCAAGRWLQKVHAYWDQGTQVTVSS | low polyreactivity
QVQLVESGGGLVQAGCTLRLSSAASGRIYRYNVMGWSRQAPGKESELVAGISSGGSTNYADSVKGRFTISRDNAKNTVYLQMTSLKPEDTAVYFCSKRWLNAKPYGQAMYSWGQGTQVTVSS | high polyreactivity
QVQLVESGGGLVQAGGSLRLSCAASGRIISRYAMGWYRQAPGKERELVATITWSTTSTYYADSVKGRFTISRDNAKNTVYLQMNSLKPEDTAVYYCAASIIPGFRRDPFGYWGQGTQVTVSS | low polyreactivity
QVQLVESGGGLVQAGGSLLLSCAASGSILVTYAMGWYRQAPGKERQLVAAISRGGRTYYADSVKGRFTISRDSAKNTVYLQMKSLNPEDNAVYYCNTLTRLVYDGMGYWGQGTQVIVSS | high polyreactivity
QVQLVESGGGLVQAGGSLRLSCAASGSIFGEYAMGWYRQAPGKERELVAGITSDGSTNYADSVKGRFTISRDNAKNTVYLQMNSLKQEDTAVYYCAAAGYVYHWAPRGSRYYYWGQGTQVTVSS | low polyreactivity
QVQLVESGGCLVQAGGSLRLSCAASGSTFAEYVMGWDRQAPGKERELVAAISSGTSTYYADSVKGRFTISRDNAKNTVYLQMNSLKPEDTAVYYCNADLYHNWYKPEYDYCGQGTQVTVSS | low polyreactivity
QVQLVESGGGLVQAGGSLSLSCAASGRSFRIYPMGWYRPAPGKERELVATITWRAGSTYYADSVKGRFTISRDNAKNTVYLLMNSLTPEDTAVYYFAAGRQYGGYRYDYWGQGTQVTVSS | high polyreactivity
QVQLVESGGGLVQAGGSLPLTCAASGSIFAWNDMGWYRQAPGKERELVAAIRESGTGTYADSVKGRFTISRDNAKNNVYLQMKSLKPEDTAVYYGVADEIQFFIYRMEYWGQGTQVTVSS | low polyreactivity
QVQLVESGGGLVQAGGSLRLSCAASGSTFDNYAMGWYRQAPGKERELVAVITQSGGITFYADSVKGRFTISRDNAKNTVYLQMNSLKPEDTAVYYCNVELDRSWYYYWGQGTQVTVSS | low polyreactivity
QVQLVESGGGLVQAGGSLRLSSAASGSIFSQNAMVWYTQAPGKERELVASISSGDSTTYADSVKGRFTISRDNAKNTVYLQMNSLKPEDTAVYYCNAYRYNALPWRYVGYDYWGQGTQVTVSS | low polyreactivity
QVQLVESGGGLVQAGGSLRLSCAASGFTFGYYSMGWYSQAPGKERELVAAISSGGNTNYADSVKGRFTISRDNAKNTVYLQMNSLKPEDTAVYYCNSRSWRYYKTYSAFNYWGQGTQVTVSS | high polyreactivity
